The data set deals with primary lung epithelium cells. Nature of the data set: Cytotoxicity (Alamar blue). It is filed as cell-based, human. The note with it: ~16 hours (overnight), reduced serum conditions. How it is done: FIGS. 11A-11B are graphs showing cytotoxicity against primary lung epithelium cells in serum-free condition. Cells were seeded in complete growth medium (Minimal essential medium supplemented with 10% fetal bovine serum) at near-confluence into a 96-well plate and allowed to settle for 24-hours. Media was then replaced to OptiMEM I reduced serum medium containing peptide or vehicle alone (DBPS) and cells were incubated overnight (16 hours). A resazurin based dye (Alamar blue) was added directly to media and conversion of resazurin to resorufin was evaluated following two hours. % Survival represents the proportion of viable cells in peptide treated cells relative to cells treated with vehicle alone. […] Each peptide was tested in triplicate.
FIG. 12 is a graph showing comparison of toxicities against Lung Primary Epithelial cells and Lung Cancerous Epithelial Cells, derived from H358 cell-line. […] Each peptide was tested in triplicate.
Cytotoxicity. Cells were seeded in complete growth medium (Minimal Essential Medium, MEMα, supplemented with 10% Fetal Bovine Serum) into a culture-treated 96-well plate at a density of 25000 cells per well. After 24 hours, culture media was aspirated and replaced with media containing the selected peptide. No-serum experiments were conducted in Opti-MEM I reduced serum media (ThermoFisher, 31985062) and 10% serum experiments were performed in complete growth medium. In all cases, DBPS was used as a vehicle only control and buffer to serially dilute the peptides. After exposure to the peptides or vehicle-alone for the defined period, Alamar blue dye (resazurin) was added directly to the media and allowed to incubate for two hours. Following incubation, A570/A600 measurements were made to calculate reduction of resazurin dye to resorufin. A ratio of reduction in treated versus untreated cells was calculated in order to determine overall cell viability. The human cells were always maintained in a 37° C. incubator under 5% CO2.

These results are taken from patent US11447533B2, “Antimicrobial and anticancer peptides and conjugates and compositions, methods, articles and kits relating thereto” (George Mason Research Foundation, Inc., priority 2018, dated 2022).

Consider “RRWKRFFKRWKGGVIGVTFPF (SEQ ID NO: 50) [ATRA1-R3W2-HYD, ATRA1-R3W2 with hydrophobic tail of NA-CATH joined by -GG-]”, for which the “concentration decreasing resazurin reduction by 50% (LD50)” value was approximately 50 µM and the “concentration over which significant toxicity was observed” value is approximately 50 µM.
